Results reported in patent publication US20040120923A1 (ARES TRADING S A, published 2004).

Target: T1, IL-18Rβ extracellular domain (his6-tagged, produced in Cos cells) (UniProt O95256 20-356, limits assumed)
T1 construct: extracellular domain; also called IL-18Rβ-ECD; signalling chain of IL-18R
T1 sequence (looked up): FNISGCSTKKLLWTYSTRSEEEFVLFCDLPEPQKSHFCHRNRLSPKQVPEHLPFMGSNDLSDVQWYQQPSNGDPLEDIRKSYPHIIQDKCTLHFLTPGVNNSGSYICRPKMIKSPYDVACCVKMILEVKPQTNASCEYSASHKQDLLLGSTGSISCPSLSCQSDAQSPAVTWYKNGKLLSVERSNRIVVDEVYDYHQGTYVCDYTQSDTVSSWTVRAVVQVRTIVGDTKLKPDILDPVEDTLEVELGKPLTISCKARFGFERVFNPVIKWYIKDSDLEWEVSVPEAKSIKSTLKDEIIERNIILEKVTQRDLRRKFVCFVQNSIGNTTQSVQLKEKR
Test: chemical cross-linking of the two extracellular domains without ligand, SDS-PAGE, Western blot with anti-his6 mAb against his6-tagged IL-18Rβ

- binding result: no binding
B1: IL-18Rα extracellular domain (produced in Cos cells) (receptor, UniProt Q13478 22-329, looked up)
chain: CTSRPHITVVEGEPFYLKHCSCSLAHEIETTTKSWYKSSGSQEHVELNPRSSSRIALHDCVLEFWPVELNDTGSYFFQMKNYTQKWKLNVIRRNKHSCFTERQVTSKIVEVKKFFQITCENSYYQTLVNSTSLYKNCKKLLLENNKNPTIKKNAEFEDQGYYSCVHFLHHNGKLFNITKTFNITIVEDRSNIVPVLLGPKLNHVAVELGKNVRLNCSALLNEEDVIYWMFGEENGSDPNIHEEKEMRIMTPEGKWHASKVLRIENIGESNLNVLYNCTVASTGGTDTKSFILVRKADMADIPGHVFTR
notes: extracellular domain; It is glycosylated (Cos cell product); also called IL-18Rα-ECD
